PMC11348035 (Proceedings of the National Academy of Sciences of the …, 2024)
One block for each molecule: values may come before it.

How the values were obtained:
UAF1 = UAF1 (UniProt Q8TAF3); test: FLAG co-immunoprecipitation, western blot; conditions: reference: wild type; sites S306
[1] = molecular target: UAF1 (USP1-associated factor 1), purified recombinant (UniProt Q8TAF3 1-677); test: pull-down
Sequence of UAF1 (USP1-associated factor 1), purified recombinant (Q8TAF3 whole entry): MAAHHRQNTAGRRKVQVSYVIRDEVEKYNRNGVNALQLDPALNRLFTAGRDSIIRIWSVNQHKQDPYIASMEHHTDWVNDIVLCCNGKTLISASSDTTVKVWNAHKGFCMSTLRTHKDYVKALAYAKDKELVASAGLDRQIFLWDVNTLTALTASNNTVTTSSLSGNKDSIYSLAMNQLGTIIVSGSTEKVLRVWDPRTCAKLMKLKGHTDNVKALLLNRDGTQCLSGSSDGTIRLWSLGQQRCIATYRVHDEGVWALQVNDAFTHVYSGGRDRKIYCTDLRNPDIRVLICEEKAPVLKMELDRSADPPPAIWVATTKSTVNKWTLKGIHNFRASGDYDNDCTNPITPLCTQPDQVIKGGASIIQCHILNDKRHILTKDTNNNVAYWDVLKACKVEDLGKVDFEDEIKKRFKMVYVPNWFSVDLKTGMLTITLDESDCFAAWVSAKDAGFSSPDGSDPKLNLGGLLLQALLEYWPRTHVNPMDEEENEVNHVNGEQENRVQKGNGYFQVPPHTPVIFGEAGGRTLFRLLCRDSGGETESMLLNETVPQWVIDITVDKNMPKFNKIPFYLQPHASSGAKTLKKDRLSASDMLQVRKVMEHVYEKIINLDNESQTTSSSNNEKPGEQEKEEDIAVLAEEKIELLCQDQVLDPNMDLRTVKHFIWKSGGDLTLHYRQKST

- binding against the reference (UAF1): weaker
Molecule: ATAD5 (from UniProt Q96QE3) S306A

- binding result [1]: binds
B1: ATAD5 (1 to 500, S306E), the 'wild-type' ATAD5 (1 to 500) of the in vitro binding studies (domain or fragment, human, UniProt Q96QE3 1-500, looked up)
chain: MVGVLAMAAAAAPPPVKDCEIEPCKKRKKDDDTSTCKTITKYLSPLGKTRDRVFAPPKPSNILDYFRKTSPTNEKTQLGKECKIKSPESVPVDSNKDCTTPLEMFSNVEFKKKRKRVNLSHQLNNIKTENEAPIEISSDDSKEDYSLNNDFVESSTSVLRYKKQVEVLAENIQDTKSQPNTMTSLQNSKKVNPKQGTTKNDFKKLRKRKCRDVVDLSESLPLAEELNLLKKDGKDTKQMENTTSHANSRDNVTEAAQLNDSIITVSYEEFLKSHKENKVEEIPDSTMSICVPSETVDEIVKSGYIEESENSEISQQVRFKTVTVLAQVHPIPPKKTGKIPRIFLKQKQFEMENSLSDPENEQTVQKRKSNVVIQEEELELAVLEAGSSEAVKPKCTLEERQQFMKAFRQPASDALKNGVKKSSDKQKDLNEKCLYEVGRDDNSKKIMENSGIQMVSKNGNLQLHTDKGSFLKEKNKKLKKKNKKTLDTGAIPGKNREGNT
